In patent US20110028538:

System: TR4 (Nr2c2), endogenous (Mus musculus)
Details: ChIP with anti-TR4 in RAW264.7 cells versus IgG

## CD36 promoter region (ChIP amplicon)
  binding signal: > 4 fold
